Data: US20210270842A1 (DYAX, published 2021)

What was measured:
[1] = molecular target: T1, cleaved high molecular weight kininogen (HMWK) (human, UniProt P01042 19-380; P01042 390-644); assay: sandwich ELISA with coated Fab; value = C, midpoint of the printed 4-P fit; 2-chain HMWK spiked into assay buffer, analysed in 2.5% plasma
T1 construct: also called cleaved HMWK; 2-chain HMWK
T1 sequence 1: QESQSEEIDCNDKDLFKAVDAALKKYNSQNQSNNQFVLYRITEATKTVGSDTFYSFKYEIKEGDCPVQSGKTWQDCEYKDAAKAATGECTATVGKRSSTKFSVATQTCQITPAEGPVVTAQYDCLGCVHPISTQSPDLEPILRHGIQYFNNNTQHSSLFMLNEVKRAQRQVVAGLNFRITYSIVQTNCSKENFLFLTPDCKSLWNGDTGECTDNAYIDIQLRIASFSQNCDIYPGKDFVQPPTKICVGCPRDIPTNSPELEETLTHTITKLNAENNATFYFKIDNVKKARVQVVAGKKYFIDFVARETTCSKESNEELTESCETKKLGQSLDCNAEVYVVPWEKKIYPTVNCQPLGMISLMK
T1 sequence 2: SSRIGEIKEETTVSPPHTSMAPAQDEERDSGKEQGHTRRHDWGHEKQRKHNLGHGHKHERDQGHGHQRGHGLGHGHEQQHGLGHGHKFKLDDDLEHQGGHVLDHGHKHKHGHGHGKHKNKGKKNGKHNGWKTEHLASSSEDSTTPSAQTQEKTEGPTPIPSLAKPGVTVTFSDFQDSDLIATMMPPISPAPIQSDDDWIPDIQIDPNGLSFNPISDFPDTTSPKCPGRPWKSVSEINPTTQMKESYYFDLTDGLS
Excerpt: Purified cleaved HMWK was spiked into SBT assay buffer (open circles), SBT assay buffer and analyzed in the presence of 10% plasma (squares), or HMWK-deficient plasma and analyzed in the presence of 10% plasma (triangles). Purified cleaved HMWK was also spiked into assay buffer and analyzed in the presence of 2.5% plasma (diamonds) or HMWK deficient plasma and analyzed in the presence of 2.5% plasma (closed circles). The y-axis presents the ELISA signal in absorbance units, and the x-axis presents the concentration of kininogen in μg/mL.
(§1) The following day, the plate was washed and then blocked with 2% BSA (Protease/IgG free) in PBS buffer. Following a wash, samples containing cleaved HMWK in 0.1% BSA buffer in PBS with 0.05% Tween-20 (2-Chain HMWK assay buffer). Purified protein standards (e.g., 2-chain HMWK, intact HMWK or LMWK) were spiked into HMWK-deficient plasma and diluted 1:320 in 2-chain HMWK assay buffer. Following plate washing with PBST, a mixture of 2 mouse monoclonal antibodies (11H05 and 13B12) at 1 μg/mL in 2-chain HMWK assay buffer were added for 1 hour at room temperature. […] Signal was detected by the addition of 3,3′,5,5′-tetramethylbenzidine (TMB), an HRP substrate. […] Hydrolysis of a TMB substrate was detected using a microplate reader at 450 nm-630 nm (FIG. 3). […] Using these immunoassay conditions, specifically binding to cleaved HMWK was detected.

[2] = molecular target: T1, cleaved high molecular weight kininogen …; assay: 2-chain HMWK sandwich ELISA standard curve, citrated plasma spiked with 2-chain HMWK, 10% final dilution; capture Fab M0004-B04 as in FIG. 12 B
[3] = molecular target: T1, cleaved high molecular weight kininogen …; assay: sandwich ELISA: Fab coated on 96-well plate, kininogen titrated, detection 11H05 + 13B12 and goat anti-mouse-HRP; value = C, midpoint of the printed 4-P fit; 2-chain HMWK spiked into SBT assay buffer
Excerpt: (§2) Purified cleaved HMWK was spiked into SBT assay buffer (circles) or HMWK-deficient plasma (squares). Purified intact HMWK was spiked into SBT assay buffer (triangles). Purified LMWK was spiked into SBT assay buffer (diamonds). The y-axis presents the ELISA signal in absorbance units, and the x-axis presents the concentration of kininogen in μg/mL.
as §1, with “temperature. Unbound detection antibodies were washed and a 1:2000 dilution of goat anti-mouse secondary antibody conjugated to horseradish peroxidase (HRP) was added.” for “temperature.”

[4] = molecular target: T1, cleaved high molecular weight kininogen …; assay: sandwich ELISA: Fab coated on 96-well plate, kininogen titrated, detection 11H05 + 13B12 and goat anti-mouse-HRP; value = C, midpoint of the printed 4-P fit; 2-chain HMWK spiked into HMWK-deficient plasma
Excerpt: as §2
as §1, with “temperature. Unbound detection antibodies were washed and a 1:2000 dilution of goat anti-mouse secondary antibody conjugated to horseradish peroxidase (HRP) was added.” for “temperature.”

[5] = molecular target: T2, intact high molecular weight kininogen (HMWK) (Homo sapiens, UniProt P01042 19-644); assay: sandwich ELISA: Fab coated on 96-well plate, kininogen titrated, detection 11H05 + 13B12 and goat anti-mouse-HRP; value = C, midpoint of the printed 4-P fit; 1-chain HMWK in SBT buffer; weak signal: only two points drawn (about 0.2 at 200, about 0.5 at 2000), fitted top 0.627 against 2.85 for 2-chain HMWK
T2 construct: also called intact HMWK; 1-chain HMWK
T2 sequence: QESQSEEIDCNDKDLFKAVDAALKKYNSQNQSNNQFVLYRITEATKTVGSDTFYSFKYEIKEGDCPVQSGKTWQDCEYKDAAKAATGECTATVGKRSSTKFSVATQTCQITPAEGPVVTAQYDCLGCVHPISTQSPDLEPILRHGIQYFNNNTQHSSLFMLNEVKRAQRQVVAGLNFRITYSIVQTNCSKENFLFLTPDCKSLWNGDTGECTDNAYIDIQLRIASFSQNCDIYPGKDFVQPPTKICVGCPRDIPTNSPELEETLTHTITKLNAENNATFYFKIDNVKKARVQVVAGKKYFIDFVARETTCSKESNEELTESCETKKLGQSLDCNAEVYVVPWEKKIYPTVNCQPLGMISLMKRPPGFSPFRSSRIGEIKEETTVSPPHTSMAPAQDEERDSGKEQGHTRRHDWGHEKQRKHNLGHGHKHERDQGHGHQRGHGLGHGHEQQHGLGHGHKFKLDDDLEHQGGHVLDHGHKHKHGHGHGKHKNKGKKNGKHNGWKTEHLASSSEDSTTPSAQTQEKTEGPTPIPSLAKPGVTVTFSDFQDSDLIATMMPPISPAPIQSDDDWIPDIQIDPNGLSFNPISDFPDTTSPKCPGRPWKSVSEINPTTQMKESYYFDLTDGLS
Excerpt: as §2
as §1, with “temperature. Unbound detection antibodies were washed and a 1:2000 dilution of goat anti-mouse secondary antibody conjugated to horseradish peroxidase (HRP) was added.” for “temperature.”

- EC50 [1]: 204 µg/mL
- EC50 (read off the curve) [2]: ~0.1 µg/mL
- EC50 [3]: 235 µg/mL
- EC50 [4]: 247 µg/mL
- EC50 [5]: 1110 µg/mL
B1: 559B-M0004-B04 (Fab, V domains shown)
VH: EVQLLESGGGLVQPGGSLRLSCAASGFTFSFYVMVWVRQAPGKGLEWVSGISPSGGNTAYADSVKGRFTISRDNSKNTLYLQMNSLRAEDTAVYYCARKLFYYDDTKGYFDFWGQGTLVTVSS
VL: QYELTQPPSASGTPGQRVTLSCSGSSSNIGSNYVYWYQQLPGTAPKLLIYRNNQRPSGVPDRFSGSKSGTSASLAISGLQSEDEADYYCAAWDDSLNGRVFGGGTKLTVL
notes: also called M004-B04
